According to patent publication US10941182 (Amgen, dated 2021):
Starred links: 1 amine or outer side, 2 acyl side, 3 side chain; linkers in the order of their positions; H or OH if unused. Non-standard residues stand in square brackets, D forms with d. Primed or numbered codes have the meaning given here. *: point of attachment. AC4Abu = α-carboxy-4-aminobutyric acid, O=C(C(CCN[*:1])C(=O)[*:3])[*:2]; Oic = O=C(O)[C@@H]1C[C@@H]2CCCC[C@@H]2N1; Phe(4-Cl) = N[C@@H](Cc1ccc(Cl)cc1)C(=O)O; γGlu = O=C(O)[C@H](CCC(=O)[*:2])N[*:1]; 2Nal = N[C@@H](Cc1ccc2ccccc2c1)C(=O)O; NMeR = CN[C@@H](CCCNC(=N)N)C(=O)O; Tridecanoyl = CCCCCCCCCCCCC(=O)*; hArg = N=C(N)NCCCC[C@H](N)C(=O)O; Cha = N[C@@H](CC1CCCCC1)C(=O)O; αMeL = CC(C)C[C@](C)(N)C(=O)O; Nle = CCCC[C@H](N)C(=O)O; Pip′ = not defined here; AEEA = NCCOCCOCC(=O)O; Aib = CC(C)(N)C(=O)O; BLeu = β-leucine

T1: human APJ receptor (human, UniProt P35414 1-380)
T1 sequence (looked up): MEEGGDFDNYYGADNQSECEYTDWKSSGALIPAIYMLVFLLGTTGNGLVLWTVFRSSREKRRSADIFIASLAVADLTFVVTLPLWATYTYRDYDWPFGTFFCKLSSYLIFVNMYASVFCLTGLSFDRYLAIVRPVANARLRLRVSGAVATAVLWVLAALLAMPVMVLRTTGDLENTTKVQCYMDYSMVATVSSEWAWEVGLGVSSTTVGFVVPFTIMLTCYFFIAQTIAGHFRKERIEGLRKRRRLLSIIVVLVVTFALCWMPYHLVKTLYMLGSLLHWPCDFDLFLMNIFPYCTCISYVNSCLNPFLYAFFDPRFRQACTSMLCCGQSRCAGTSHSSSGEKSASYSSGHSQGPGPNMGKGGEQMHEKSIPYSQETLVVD

T2: rat APJ receptor (rat, UniProt Q9JHG3 1-377)
T2 sequence (looked up): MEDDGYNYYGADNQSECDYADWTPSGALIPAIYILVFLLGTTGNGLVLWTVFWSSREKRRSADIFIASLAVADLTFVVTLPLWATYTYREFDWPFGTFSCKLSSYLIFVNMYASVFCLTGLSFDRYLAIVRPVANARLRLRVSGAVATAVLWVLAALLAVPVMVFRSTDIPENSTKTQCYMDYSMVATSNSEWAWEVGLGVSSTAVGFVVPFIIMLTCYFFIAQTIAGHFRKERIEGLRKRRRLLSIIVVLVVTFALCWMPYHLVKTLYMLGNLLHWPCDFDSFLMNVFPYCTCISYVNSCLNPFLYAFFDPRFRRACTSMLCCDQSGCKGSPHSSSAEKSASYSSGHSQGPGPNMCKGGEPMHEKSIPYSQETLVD

B1: Apelin polypeptide SEQ ID NO: 446 (peptide)
peptide: Tridecanoyl-[γGlu][AEEA][AEEA]QR[NMeR][Cha]SHKG[Oic][Nle]P[Phe(4-Cl)]-OH
SMILES: CCCCCCCCCCCCC(=O)N[C@@H](CCC(=O)NCCOCCOCC(=O)NCCOCCOCC(=O)N[C@@H](CCC(N)=O)C(=O)N[C@@H](CCCNC(=N)N)C(=O)N(C)[C@@H](CCCNC(=N)N)C(=O)N[C@@H](CC1CCCCC1)C(=O)N[C@@H](CO)C(=O)N[C@@H](Cc1c[nH]cn1)C(=O)N[C@@H](CCCCN)C(=O)NCC(=O)N1[C@H](C(=O)N[C@@H](CCCC)C(=O)N2CCC[C@H]2C(=O)N[C@@H](Cc2ccc(Cl)cc2)C(=O)O)C[C@@H]2CCCC[C@@H]21)C(=O)O
B2: Apelin polypeptide SEQ ID NO: 440 (peptide)
peptide: Tridecanoyl-[γGlu][AEEA][AEEA]QR[Pip′][NMeR][Cha]SHKG[Oic][Nle]P[Phe(4-Cl)]-OH
B3: Apelin polypeptide SEQ ID NO: 378 (peptide)
peptide: Tridecanoyl-[γGlu][AEEA][AEEA][dQ]RP[hArg][BLeu]SHKG[Oic][Nle]P[Phe(4-Cl)]-OH
B4: Apelin polypeptide SEQ ID NO: 360 (peptide)
peptide: Tridecanoyl-[γGlu][AEEA][AEEA]QRP[hArg][αMeL]SHKG[Oic][Nle]P[Phe(4-Cl)]-OH
SMILES: CCCCCCCCCCCCC(=O)N[C@@H](CCC(=O)NCCOCCOCC(=O)NCCOCCOCC(=O)N[C@@H](CCC(N)=O)C(=O)N[C@@H](CCCNC(=N)N)C(=O)N1CCC[C@H]1C(=O)N[C@@H](CCCCNC(=N)N)C(=O)N[C@@](C)(CC(C)C)C(=O)N[C@@H](CO)C(=O)N[C@@H](Cc1c[nH]cn1)C(=O)N[C@@H](CCCCN)C(=O)NCC(=O)N1[C@H](C(=O)N[C@@H](CCCC)C(=O)N2CCC[C@H]2C(=O)N[C@@H](Cc2ccc(Cl)cc2)C(=O)O)C[C@@H]2CCCC[C@@H]21)C(=O)O
B5: Apelin polypeptide SEQ ID NO: 428 (peptide)
peptide: Tridecanoyl-[γGlu][AEEA][AEEA]QRP[Nle]LSHKGP[Nle]P[Phe(4-Cl)]-OH
SMILES: CCCCCCCCCCCCC(=O)N[C@@H](CCC(=O)NCCOCCOCC(=O)NCCOCCOCC(=O)N[C@@H](CCC(N)=O)C(=O)N[C@@H](CCCNC(=N)N)C(=O)N1CCC[C@H]1C(=O)N[C@@H](CCCC)C(=O)N[C@@H](CC(C)C)C(=O)N[C@@H](CO)C(=O)N[C@@H](Cc1c[nH]cn1)C(=O)N[C@@H](CCCCN)C(=O)NCC(=O)N1CCC[C@H]1C(=O)N[C@@H](CCCC)C(=O)N1CCC[C@H]1C(=O)N[C@@H](Cc1ccc(Cl)cc1)C(=O)O)C(=O)O
B6: Apelin polypeptide SEQ ID NO: 529 (peptide)
peptide: Tridecanoyl-[γGlu][AEEA][AEEA][dQ]RP[Nle][Cha]SAKG[Oic][Nle][Aib][Phe(4-Cl)]-OH
SMILES: CCCCCCCCCCCCC(=O)N[C@@H](CCC(=O)NCCOCCOCC(=O)NCCOCCOCC(=O)N[C@H](CCC(N)=O)C(=O)N[C@@H](CCCNC(=N)N)C(=O)N1CCC[C@H]1C(=O)N[C@@H](CCCC)C(=O)N[C@@H](CC1CCCCC1)C(=O)N[C@@H](CO)C(=O)N[C@@H](C)C(=O)N[C@@H](CCCCN)C(=O)NCC(=O)N1[C@H](C(=O)N[C@@H](CCCC)C(=O)NC(C)(C)C(=O)N[C@@H](Cc2ccc(Cl)cc2)C(=O)O)C[C@@H]2CCCC[C@@H]21)C(=O)O
B7: Apelin polypeptide SEQ ID NO: 521 (peptide)
peptide: Tridecanoyl-[γGlu][AEEA][AEEA][dQ]R[Pip′][hArg][BLeu]SHKG[Oic][Nle][Aib][Phe(4-Cl)]-OH
B8: Apelin polypeptide SEQ ID NO: 308 (peptide)
peptide: Tridecanoyl-[γGlu][AEEA][AEEA]QRP[hArg][Cha]SHKG[Oic][Nle]P[Phe(4-Cl)]-OH
SMILES: CCCCCCCCCCCCC(=O)N[C@@H](CCC(=O)NCCOCCOCC(=O)NCCOCCOCC(=O)N[C@@H](CCC(N)=O)C(=O)N[C@@H](CCCNC(=N)N)C(=O)N1CCC[C@H]1C(=O)N[C@@H](CCCCNC(=N)N)C(=O)N[C@@H](CC1CCCCC1)C(=O)N[C@@H](CO)C(=O)N[C@@H](Cc1c[nH]cn1)C(=O)N[C@@H](CCCCN)C(=O)NCC(=O)N1[C@H](C(=O)N[C@@H](CCCC)C(=O)N2CCC[C@H]2C(=O)N[C@@H](Cc2ccc(Cl)cc2)C(=O)O)C[C@@H]2CCCC[C@@H]21)C(=O)O
B9: Apelin polypeptide SEQ ID NO: 517 (peptide)
peptide: Tridecanoyl-[γGlu][AEEA][AEEA][dQ]R[Pip′][NMeR][Cha]SHKG[Oic][Nle][Aib][Phe(4-Cl)]-OH
B10: Apelin polypeptide SEQ ID NO: 528 (peptide)
peptide: Tridecanoyl-[γGlu][AEEA][AEEA][dQ]RP[Nle][Cha]SHKG[Oic][Nle][Aib][Phe(4-Cl)]-OH
SMILES: CCCCCCCCCCCCC(=O)N[C@@H](CCC(=O)NCCOCCOCC(=O)NCCOCCOCC(=O)N[C@H](CCC(N)=O)C(=O)N[C@@H](CCCNC(=N)N)C(=O)N1CCC[C@H]1C(=O)N[C@@H](CCCC)C(=O)N[C@@H](CC1CCCCC1)C(=O)N[C@@H](CO)C(=O)N[C@@H](Cc1c[nH]cn1)C(=O)N[C@@H](CCCCN)C(=O)NCC(=O)N1[C@H](C(=O)N[C@@H](CCCC)C(=O)NC(C)(C)C(=O)N[C@@H](Cc2ccc(Cl)cc2)C(=O)O)C[C@@H]2CCCC[C@@H]21)C(=O)O
B11: Apelin polypeptide SEQ ID NO: 356 (peptide)
peptide: Tridecanoyl-[γGlu][AEEA][AEEA]QRP[hArg]LSHKG[Oic][Nle]P[Phe(4-Cl)]-OH
SMILES: CCCCCCCCCCCCC(=O)N[C@@H](CCC(=O)NCCOCCOCC(=O)NCCOCCOCC(=O)N[C@@H](CCC(N)=O)C(=O)N[C@@H](CCCNC(=N)N)C(=O)N1CCC[C@H]1C(=O)N[C@@H](CCCCNC(=N)N)C(=O)N[C@@H](CC(C)C)C(=O)N[C@@H](CO)C(=O)N[C@@H](Cc1c[nH]cn1)C(=O)N[C@@H](CCCCN)C(=O)NCC(=O)N1[C@H](C(=O)N[C@@H](CCCC)C(=O)N2CCC[C@H]2C(=O)N[C@@H](Cc2ccc(Cl)cc2)C(=O)O)C[C@@H]2CCCC[C@@H]21)C(=O)O
B12: Apelin polypeptide SEQ ID NO: 476 (peptide)
peptide: Tridecanoyl-[γGlu][AEEA][AEEA]QRE[NMeR]LSHKGP[Nle]P[Phe(4-Cl)]-OH
SMILES: CCCCCCCCCCCCC(=O)N[C@@H](CCC(=O)NCCOCCOCC(=O)NCCOCCOCC(=O)N[C@@H](CCC(N)=O)C(=O)N[C@@H](CCCNC(=N)N)C(=O)N[C@@H](CCC(=O)O)C(=O)N(C)[C@@H](CCCNC(=N)N)C(=O)N[C@@H](CC(C)C)C(=O)N[C@@H](CO)C(=O)N[C@@H](Cc1c[nH]cn1)C(=O)N[C@@H](CCCCN)C(=O)NCC(=O)N1CCC[C@H]1C(=O)N[C@@H](CCCC)C(=O)N1CCC[C@H]1C(=O)N[C@@H](Cc1ccc(Cl)cc1)C(=O)O)C(=O)O
B13: Apelin polypeptide SEQ ID NO: 404 (peptide)
peptide: Tridecanoyl-[AC4Abu][AEEA][AEEA]QRP[hArg][αMeL]SHKGP[Nle]P[2Nal]-OH
SMILES: CCCCCCCCCCCCC(=O)NCCC(C(=O)O)C(=O)NCCOCCOCC(=O)NCCOCCOCC(=O)N[C@@H](CCC(N)=O)C(=O)N[C@@H](CCCNC(=N)N)C(=O)N1CCC[C@H]1C(=O)N[C@@H](CCCCNC(=N)N)C(=O)N[C@@](C)(CC(C)C)C(=O)N[C@@H](CO)C(=O)N[C@@H](Cc1c[nH]cn1)C(=O)N[C@@H](CCCCN)C(=O)NCC(=O)N1CCC[C@H]1C(=O)N[C@@H](CCCC)C(=O)N1CCC[C@H]1C(=O)N[C@@H](Cc1ccc2ccccc2c1)C(=O)O

Target: T1, human APJ receptor
Test: cell-based or functional assay

Which “EC50 Human APJ Receptor (GTPγS assay)” value does the source give for B1 here?
Its value is 1.11 nM.

Which “EC50 Human APJ Receptor (GTPγS assay)” value does the source give for B2 here?
Its value is 3.48 nM.

B3 was tested. Which “EC50 Human APJ Receptor (GTPγS assay)” value did it give?
The value was 0.26 nM.

B4 was tested. Which “EC50 Human APJ Receptor (GTPγS assay)” value did it give?
Its value is 0.0519 nM.

B5 was tested. Which “EC50 Human APJ Receptor (GTPγS assay)” value did it give?
Its value is 0.4 nM.

B6 was tested. Which “EC50 Human APJ Receptor (GTPγS assay)” value did it give?
The value was 5.26 nM.

Which “EC50 Human APJ Receptor (GTPγS assay)” value does the source give for B7 here?
Its value is 1.03 nM.

With B8 as the binder, how does the “EC50 Human APJ Receptor (GTPγS assay)” value read?
Its value is 0.0867 nM.

For B9, which “EC50 Human APJ Receptor (GTPγS assay)” value is on record?
The value was 0.62 nM.

For B10, which “EC50 Human APJ Receptor (GTPγS assay)” value is on record?
Its value is 5.63 nM.

For B11, which “EC50 Human APJ Receptor (GTPγS assay)” value is on record?
The value was 0.321 nM.

Which “EC50 Human APJ Receptor (GTPγS assay)” value does the source give for B12 here?
The value was 0.346 nM.

For B13, which “EC50 Human APJ Receptor (GTPγS assay)” value is on record?
Its value is 0.298 nM.

Target: T2, rat APJ receptor
Test: cell-based or functional assay

How did the “EC50 Rat APJ Receptor (GTPγS assay)” value turn out when B1 was run?
Its value is 1.9 nM.

For B2, which “EC50 Rat APJ Receptor (GTPγS assay)” value is on record?
The value was 4.26 nM.

With B3 as the binder, how does the “EC50 Rat APJ Receptor (GTPγS assay)” value read?
Its value is 0.411 nM.

With B4 as the binder, how does the “EC50 Rat APJ Receptor (GTPγS assay)” value read?
The value was 0.0827 nM.

For B5, which “EC50 Rat APJ Receptor (GTPγS assay)” value is on record?
The value was 0.494 nM.

For B6, which “EC50 Rat APJ Receptor (GTPγS assay)” value is on record?
The value was 24 nM.

With B7 as the binder, how does the “EC50 Rat APJ Receptor (GTPγS assay)” value read?
Its value is 3.21 nM.

With B8 as the binder, how does the “EC50 Rat APJ Receptor (GTPγS assay)” value read?
The value was 0.18 nM.

How did the “EC50 Rat APJ Receptor (GTPγS assay)” value turn out when B9 was run?
The value was 3.22 nM.

With B10 as the binder, how does the “EC50 Rat APJ Receptor (GTPγS assay)” value read?
Its value is 21.8 nM.

Which “EC50 Rat APJ Receptor (GTPγS assay)” value does the source give for B11 here?
The value was 0.289 nM.

How did the “EC50 Rat APJ Receptor (GTPγS assay)” value turn out when B12 was run?
The value was 0.873 nM.

With B13 as the binder, how does the “EC50 Rat APJ Receptor (GTPγS assay)” value read?
Its value is 0.361 nM.
